Data reported in the nanobody polyreactivity screen of Harvey et al. (2022).

Assay: yeast display, Sf9 membrane polyspecificity reagent, FACS + sequencing; frameworks hold sequencing errors
How it was run: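 Sorting gates, low and high (top ~1%), were placed on anti-HA fluorescence to track expression and on streptavidin fluorescence to track reagent binding. A clone's polyreactivity label is taken from the gate it came out of. The reagent was 10% biotinylated, detergent-solubilized Sf9 membrane, applied for 1 hour at 4 °C to galactose-induced yeast display cells.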

For “QVQLVESGGGLVQAGGSHRLSCAASGYIFRYSTMGWYRQAPGKERELVAVITRGGSTYYADSVKGRFTISRDNAKNTVYLQMTSLNPEDTAVYYCAAVRTKVWRGPEMDYWGQCTQVTVSS”, the “polyreactivity (PSR sort gate)” value was “high polyreactivity”.

With “QVQLVESGGGLVQAGGSLRISCAASGRTFDSYAMGWYIQAPGKEREFVAAISYSGTSTYYADSVKGRFTISRDYAKNTVYLQMNSLIPEDTAVYYCAKEFIFRLWGQGTQVTVSS” the “polyreactivity (PSR sort gate)” value was “low polyreactivity”.

In the case of “QVQLVESGGGLVQAGGSLRLSCAASGFIFLGNVMGWYRQAPGKERELVAAINWSDGSTYYADSVKGRFTISRDNAKNTVYLQMNSLKPEDTAVYYCNVDAGVEGGTVDYWGQGTQVTVSS”, the “polyreactivity (PSR sort gate)” value was “low polyreactivity”.

With “QVQLVESGGGLVQAGGSLRLSCAASGSIFLRNAMGWYRQAPGKERELVASITWNGASTSYADSVKGRFTISRDNAKNTVYLQMNSLKPEDTAVYYCAAVTVQDSNLKYGYWGQGTQLTVSS” the “polyreactivity (PSR sort gate)” value was “low polyreactivity”.

In the case of “QVQLVESGGGLVQAGGSLRLICAASGITFSAYAMGWYRQAPGKERELVAAITRSGGITYYADSVKGRFTISRDNAKNSVYLQMNSLKPEDTAVYYCNKPYASPYYDSWGQGTQVTVSS”, the “polyreactivity (PSR sort gate)” value was “high polyreactivity”.

With “QVQLVESGGGLVQAGGSLRLSCAASGSLYFAYAMGWYRQAPGKEREFVAAISASGGSTSYADSVKGRFTISRDNAKNTVYLQMNSLKPEDTAVYYCATEHRVTTYDYWGQGTQVTVSS” the “polyreactivity (PSR sort gate)” value was “low polyreactivity”.

With “QVQLVESGGGLVQAGGSLRLSCAASGVTFAHNAMGWYRQAPGKERELVAAITRSGGSTYYADSVKGRFTISRDNAKNTVYLQMNSLKPEDTAVYYCIAGRRGSGYGYWGQGTQVTVSS” the “polyreactivity (PSR sort gate)” value was “high polyreactivity”.

For “QDQLVESGAGLVQAGGSLRLSCAASGRIFTPYAMGGYRHAPRKERELVAVIRDGSTYFADSVKGRFTISRDNAKNTVYFQMKSLKPEETAGYYCRYDIWVWWSGAYDYWGQGTQVTVSS”, the “polyreactivity (PSR sort gate)” value was “low polyreactivity”.

For “QVQLVESGGGLVQAGGSLRLSCAASGSTFVKYAMGWYRQAPGKERELVAAINRSGASTYYADSVKGRFTISRDNAKNTVYLQMNSLKPEDTAVYYCAARFSWVGYYWGQGTQVTVSS”, the “polyreactivity (PSR sort gate)” value was “high polyreactivity”.

With “QVQLVESGGGLVQAGGSLRLSCAASGSIFYDYAMGWYRQATRKERELVPAITNDDSSTYYADSVKGRFTISRDNAKNTVYLQMNSLKPEDTAVYYCRFKYAVAHHFWVYRYDYWGQGTQVTVSS” the “polyreactivity (PSR sort gate)” value was “low polyreactivity”.

For “QVQLVESGGGLVQAGGSLRLSCASSGLIFKKYTIGWYRQGPGKERELVASISKSGGSTYYADSVKGRFTISRDNAKNTVYLQMNSLNPEDTAVYYCNSVNHYIGFDYWGQGTQVTVSS”, the “polyreactivity (PSR sort gate)” value was “low polyreactivity”.

For “QVQLVESGGGLVQAGGSLRLSCAASGRTFGRYAMGWYRQAPGKERELVATISSRGGNTYYADSVKGRFTISRDNAKNTVYLQMNSLKPEDTAVYYCAAQTYKWYDWGQGTQVTVSS”, the “polyreactivity (PSR sort gate)” value was “high polyreactivity”.

In the case of “QVQLVESGGGLVQAGGSLRLSCAASGRTFRKYGMGWYRQAPGKERELVAAITRSGGSTYYADSVKGRFTISRDNAKHTVYLQMNSLKPEDTSVSYCARSPVVVGSFLSYDYWGQGTQVTVSS”, the “polyreactivity (PSR sort gate)” value was “high polyreactivity”.

In the case of “QDQLVESGGGLVQAGGSLRLSCAASGRTFAAYAMGWYRQAPGKERELVATIRRGGTTDYADSVKGRFTISRDNAKNTVYLQMNSLKPEDTAVYYCNARSRTYRTRRYDYWGQGTQVTVSS”, the “polyreactivity (PSR sort gate)” value was “high polyreactivity”.

With “QVQLVESGGGLVQAGGSLRLICAASGSTFHAYAMGWYRQAPGKEREMVAAISWRGGSTYYADSVKGRFTISRDNAKNTVYLQMNSLKPEDTAVYYCAASVQGLFGTSGMEGVDYWGQGTQVTVSS” the “polyreactivity (PSR sort gate)” value was “high polyreactivity”.

In the case of “QVQLVESGGGLVQAGGSLRLSCAASGRIFSNNAMGWYRQAPGKERELVAASNRSGDGTYYADSVKGRFTSSRDHAKNTVYLQMNSLKPEDTAVYYCAVRYYWGYTSYGYWGQGTQVTVSS”, the “polyreactivity (PSR sort gate)” value was “high polyreactivity”.

For “QVQLVESGGGLVQAGGSLRLSCAASGSTFGAYAMGWYRQAPGKEREFVAAISGGGDGTYADSVKGRFTISRDNAKNTVYLQMNSLKPEDTAVYYCAAEDVPYDREDYWGQGTQVTVSS”, the “polyreactivity (PSR sort gate)” value was “low polyreactivity”.

In the case of “QVQLVESGGGLVQAGGSLRLSCAASGRIFSYYTMGWYRQEPRKERELVATITSGVNTNYADSVKGRFTISRDNAKNTVYLQMNSLKPEDTAVFYCIARGTAERDYWGQGTQVTVSS”, the “polyreactivity (PSR sort gate)” value was “high polyreactivity”.

With “QVQLVESGGGLVQAGGSLRLSCAASGSIFNYYAMGWYRQAPGKERELVAGITSVGSTYYADSVKGRFTISRDNAKNTVYLQMNSLKPEDTAVYYCAAGYWYGMYYWGQGTQVTVSS” the “polyreactivity (PSR sort gate)” value was “high polyreactivity”.

For “QLQLVETGGGLVQAGGSLRLSCAASGSIIAKNAKGWYSQAPGTDRELVAAISKSGGITYYADSVKGRFSISRDNAKNTVYLQINSLKPEDTAVYYCNALSAGYIGVASRYYYWGQGTQVTVSS”, the “polyreactivity (PSR sort gate)” value was “high polyreactivity”.

In the case of “QVHLVESGGGLVQAGGSLRLSCAASGLIIYRYAMGWYRQAPGKERELVAAITTNGARTYYADSVKGRFTISRDNAKNTVYLQMTSLIPEDTAVYYCAAYGAGKFWAEHNYWGLGTQVTVSS”, the “polyreactivity (PSR sort gate)” value was “high polyreactivity”.

With “QVQLVESGVGLVQAGGSLRLSCAASGSTFKYYGMGWYRQAPGKERELVASISSSGTRTYYADSVKGRFTISSDNAKNTVYLQMNSLKPEDTAVYYCAADSYATYFLYDSWGQGTQVSVSS” the “polyreactivity (PSR sort gate)” value was “low polyreactivity”.

For “QVQLVESGGGLVQAGGSLRLICAASGFTFYKNTMGWYRQAPGKERELVAAISSSGSSTYYADSVKGRFTISRDNAKNTVYLQMNSLKPEDTAVYYCAAGRFAYHDDYWGQGTQVTVSS”, the “polyreactivity (PSR sort gate)” value was “high polyreactivity”.

In the case of “QVQLVESGGGLVQAGGSLRLSCAASGRIFLLNAMGWYRQAPGKERELVADISFNGGSKYYADSVKGRFTISRDNAKNTVYLQMNSLKPEDTAVYYCNADAHNLWFRYYYWGQGTQVTVSS”, the “polyreactivity (PSR sort gate)” value was “low polyreactivity”.

With “QVQLEESGGGLVQAGGSLSLSCAASGSTFDNYAMGWYRKAPGKERELVADITWSGGSTYYADSVKGRFTISRDNAQNSVYLQMNSLKAEDTAVYYCNTAGYYTKYDYWGQGTQVTVSS” the “polyreactivity (PSR sort gate)” value was “low polyreactivity”.

For “QVQLVESGGGLVQAGGSLRLSCAASGITFRFNAMGWYRQAPGKEREFVAAITYSGDSTYYADSVKGRFTISRDNAKNTVYLQMNSLKPEDTAVYYCAADYYAISRRIFYYWGQGTQVTVSS”, the “polyreactivity (PSR sort gate)” value was “low polyreactivity”.

With “QVQLVESGGGLVQAGGSLRLSCAASGRTFFEYAMGWYRQAPGKERELVAIITNGATTNYADSVKGRFTISRDNAKNTVYLQMNSLKPEDTAVYYCAVAKWQPRRRKYYYWGQGTQVTVSS” the “polyreactivity (PSR sort gate)” value was “high polyreactivity”.

For “QVQLVESGGGLVQAGGSLRLSCAASGSTFGFYAMGWYRQAPGKERELVAAITSGDITYADSVKGRFTISRDNAKNTVYLQMNSLKPEDTAVYYCAASGPYSYDWGQGTQVTVSS”, the “polyreactivity (PSR sort gate)” value was “low polyreactivity”.

With “QVQHVESGAGLVQAGGSLRLSCAASGRIFSRYAMGWYRQAPGKERELVAAISERGASTYYADSVKGRFTISRDNAKNTVYLQMNSLKPEDTAVYYCAAKRGSGYGYWGQGTQVTVSS” the “polyreactivity (PSR sort gate)” value was “high polyreactivity”.

For “QVQLVESGGGLVQAGGSLRLSCAASGRILASYAMGWYRQAPGKERELVAAIRYRGSTSYADSVKGRFTISRDNANNTVYLQMNSLKPEDTAVYYCNAGLEYYYWGYTWEFDYWGQGTQVTVSS”, the “polyreactivity (PSR sort gate)” value was “low polyreactivity”.

With “QVQLVESGGGLVQAGGSLRLSCAASGSTFRSYNMGWYRQAPGKERELVADINGTGGSTYYADSVKGRFTISRDNAKNTVYLQMNSLKPEDTAVYYCAADGYFRTVTSGWALRMGYWGQGTQVTVSS” the “polyreactivity (PSR sort gate)” value was “high polyreactivity”.

For “QVQLVESGGGLVQAGGSLRLSCAASGRIFSFNAMGWYRQAPGKERELVAGITDSGGSTYYADSVKGRFTISRDNAKNTVYSQMNSLKPEDTAVYYCNAEWPYSRVRDYFYAYDYWGQGTQVTVSS”, the “polyreactivity (PSR sort gate)” value was “low polyreactivity”.

With “QVQLVESGGGLVQAGGSLRLSCAAYGNAMGWYRQAPGKERELVASINRSGGRTYYADSVKGRFTISRDNAKNTVYLQMNSLKPEDTAVYYCAARPHYDSDYWGQGTQVTVSS” the “polyreactivity (PSR sort gate)” value was “low polyreactivity”.

In the case of “QVQLVESGGGLVQAGGSLRLSCAASGYTFSVNALGWYRQAPGKERELVATINSSGGGTYYADSVKGRFTISRDNAKYTVYLQMNSLKPEDTAVFYCAADGYWYGDIYPSDYRWYDYWGQGTQVTVSS”, the “polyreactivity (PSR sort gate)” value was “low polyreactivity”.

With “QVQLVESRGGLVQAGGSLRLSCAASGYTFYGYAMGWYRQAPGKERELVAAISGSGGSTYYADSVKGRFTISRDNAKNTVYLQMNSLKREDTAVYYCNKARYAIYRGDGYDYWGQGTQVTVSS” the “polyreactivity (PSR sort gate)” value was “high polyreactivity”.

With “QAQLVESGGGLVQAGGSLRLSCAASGRTFYYYTMGWYRQAPGKERELVAAISYSGGSTSYADSVKGRFTISRDNAKNTVYLQMNSLKPEDTAVYYCNARYKYYTQRRYHYDYWGQGTQVTVSS” the “polyreactivity (PSR sort gate)” value was “high polyreactivity”.

With “QVQLVESGGGLVQAGGSLRLSCAASGNTFQYYALGWYRQAPGKERELVAAITTGGSKNFADSVKGRFTISRDNAKNTVYLQMNSLKPEDTAVYYCAARGGVSKRISDYWGQGTQVTVSS” the “polyreactivity (PSR sort gate)” value was “low polyreactivity”.

In the case of “QVQLVESGVGLVQAGGSLRLSCAASGSTLFVYTKGWSRQAPGKERELVAAITSSGGSTYYADSVKGRFTISRDKAKNTVYLQMNSLKAQDTAVYYCAAKELGSPYDYWGQGTQVTVSS”, the “polyreactivity (PSR sort gate)” value was “high polyreactivity”.

With “QVQLVESGGGLVQAGGSLRLSCAASGRTFYGYAMGWYRQAPGKERELVAAISFSGGRTYYADSVKGRFTISRDNAKNTVYLQMNSLKPEDTAVYYCNRGLYPFDWVQGTQVTVSS” the “polyreactivity (PSR sort gate)” value was “high polyreactivity”.

For “QVQLVESGRGLVQAGGSLRLSCAASGSTFDGYAMGWYRQAPGKERELVAAINWGGGSTRYADSVKGRFTISRDNAKNTVYLQMNSLKPEDTAVYYCAKYTSSRFDAFNYWGQGTQVTVSS”, the “polyreactivity (PSR sort gate)” value was “high polyreactivity”.

With “QVQLVESGGGLVQAGGSLRLSCAASGRIFKGYVMGWYRQAPGKERELVAAISKSGGRTYYADPVKGRFTISRDNAKNTVYLQMNSLKPEDTAVYYCNAVGVVTYSFYYWGQGTQVTVSS” the “polyreactivity (PSR sort gate)” value was “high polyreactivity”.

With “QVPLVESGGGLVQAGGILRISCAATGSSFRFKAMGWYRQAPGQERELVAAISRRGSSTYYADSVKGRCTISRDNAKNRVYLQMNSLKAEDTAVYYCAASGGYRPHRYQIGDYDNWGQGTQVTLSS” the “polyreactivity (PSR sort gate)” value was “high polyreactivity”.

With “QVQRVESGGGLVQAGGSLRLSSAASGRIFWDNAMGGYRQEPGKERELVAAISDSVVITYYADSVKGRFTITRDNAKNTVYLQMNSLKPEDTAVYYCNVTGGPYDFTRWSEFDHWGQGTQETVSS” the “polyreactivity (PSR sort gate)” value was “low polyreactivity”.
